Assay results as given in the Human Domainome abundance scans (Beltran et al. 2025).
± gives the uncertainty stated by the source.

B1: Intersectin-1, residues 909 to 971; numbered along this chain, Q15811 (parent)
chain: QGEKVEGLQAQALYPWRAKKDNHLNFNKNDVITVLEQQDMWWFGEVQGQKGWFPKSYVKLISG

Variants of: B1
Assay: abundance fitness (aPCA) (normalised: wild type 0, dead -1); higher = more abundant; growth selection in yeast, the domain comes from the species named
Settings: Homo sapiens

| Variant | abundance fitness |
| --- | --- |
| QGEKVEGLQAQALYPWRAKKDNHFNFNKNDVITVLEQQDMWWFGEVQGQKGWFPKSYVKLISG [L24F] | -0.466 ± 0.27 |
| QGEKVEGLQAQALYPWRAKKDNHPNFNKNDVITVLEQQDMWWFGEVQGQKGWFPKSYVKLISG [L24P] | -0.383 ± 0.2 |
| QGEKVEGLQAQALYPWRAKKDNHTNFNKNDVITVLEQQDMWWFGEVQGQKGWFPKSYVKLISG [L24T] | -0.694 ± 0.15 |
| QGEKVEGLQAQALYPWRAKKDNHQNFNKNDVITVLEQQDMWWFGEVQGQKGWFPKSYVKLISG [L24Q] | -0.694 ± 0.27 |
| QGEKVEGLQAQALYPWRAKKDSHLNFNKNDVITVLEQQDMWWFGEVQGQKGWFPKSYVKLISG [N22S] | 0.036 ± 0.11 |
| QGEKVEGLQAQALYPWRAKKDTHLNFNKNDVITVLEQQDMWWFGEVQGQKGWFPKSYVKLISG [N22T] | 0.003 ± 0.14 |
| QGEKVEGLQAQALYPWRAKKDGHLNFNKNDVITVLEQQDMWWFGEVQGQKGWFPKSYVKLISG [N22G] | -0.018 ± 0.074 |
| QGEKVEGLQAQALYPWRAKKDLHLNFNKNDVITVLEQQDMWWFGEVQGQKGWFPKSYVKLISG [N22L] | -0.279 ± 0.17 |
| QGEKVEGLQAQALYPWRAKKDVHLNFNKNDVITVLEQQDMWWFGEVQGQKGWFPKSYVKLISG [N22V] | -0.313 ± 0.11 |
| QGEKVEGLQAQALYPWRAKKDKHLNFNKNDVITVLEQQDMWWFGEVQGQKGWFPKSYVKLISG [N22K] | 0.022 ± 0.12 |
| QGEKVEGLQAQALYPWRAKKDMHLNFNKNDVITVLEQQDMWWFGEVQGQKGWFPKSYVKLISG [N22M] | -0.4 ± 0.18 |
| QGEKVEGLQAQALYPWRAKKDQHLNFNKNDVITVLEQQDMWWFGEVQGQKGWFPKSYVKLISG [N22Q] | 0.015 ± 0.15 |
| QGEKVEGLQAQALYPWRAKKDWHLNFNKNDVITVLEQQDMWWFGEVQGQKGWFPKSYVKLISG [N22W] | -0.172 ± 0.14 |
| QGEKVEGLQAQALYPWRAKKDRHLNFNKNDVITVLEQQDMWWFGEVQGQKGWFPKSYVKLISG [N22R] | -0.142 ± 0.079 |
| QGEKVEGLQAQALYPWRAKKDPHLNFNKNDVITVLEQQDMWWFGEVQGQKGWFPKSYVKLISG [N22P] | 0.037 ± 0.2 |
| QGEKVEGLQAQALYPWRAKKDCHLNFNKNDVITVLEQQDMWWFGEVQGQKGWFPKSYVKLISG [N22C] | 0.051 ± 0.18 |
| QGEKVEGLQAQALYPWRAKKDAHLNFNKNDVITVLEQQDMWWFGEVQGQKGWFPKSYVKLISG [N22A] | -0.118 ± 0.11 |
| QGEKVEGLQAQALYPWRAKKDHHLNFNKNDVITVLEQQDMWWFGEVQGQKGWFPKSYVKLISG [N22H] | -0.301 ± 0.25 |
| QGEKVEGLQAQALYPWRAKKDNHLFFNKNDVITVLEQQDMWWFGEVQGQKGWFPKSYVKLISG [N25F] | -0.491 ± 0.23 |
| QGEKVEGLQAQALYPWRAKKDNHLGFNKNDVITVLEQQDMWWFGEVQGQKGWFPKSYVKLISG [N25G] | -0.081 ± 0.052 |
| QGEKVEGLQAQALYPWRAKKDNHLDFNKNDVITVLEQQDMWWFGEVQGQKGWFPKSYVKLISG [N25D] | -0.066 ± 0.1 |
| QGEKVEGLQAQALYPWRAKKDNHLEFNKNDVITVLEQQDMWWFGEVQGQKGWFPKSYVKLISG [N25E] | -0.08 ± 0.13 |

| Variant | abundance fitness |
| --- | --- |
| QGEKVEGLQAQALYPWRAKKDNHLMFNKNDVITVLEQQDMWWFGEVQGQKGWFPKSYVKLISG [N25M] | -0.087 ± 0.21 |
| QGEKVEGLQAQALYPWRAKKDNHLHFNKNDVITVLEQQDMWWFGEVQGQKGWFPKSYVKLISG [N25H] | 0.009 ± 0.5 |
| QGEKVEGLQAQALYPWRAKKDNHLAFNKNDVITVLEQQDMWWFGEVQGQKGWFPKSYVKLISG [N25A] | -0.064 ± 0.1 |
| QGEKVEGLQAQALYPWRAKKDNHLKFNKNDVITVLEQQDMWWFGEVQGQKGWFPKSYVKLISG [N25K] | 0.115 ± 0.31 |
| QGEKVEGLQAQALYPWRAKKDNHLLFNKNDVITVLEQQDMWWFGEVQGQKGWFPKSYVKLISG [N25L] | -0.28 ± 0.15 |
| QGEKVEGLQAQALYPWRAKKDNHLCFNKNDVITVLEQQDMWWFGEVQGQKGWFPKSYVKLISG [N25C] | -0.057 ± 0.28 |
| QGEKVEGLQAQALYPWRAKKDNQLNFNKNDVITVLEQQDMWWFGEVQGQKGWFPKSYVKLISG [H23Q] | -0.135 ± 0.31 |
| QGEKVEGLQAQALYPWRAKKDNILNFNKNDVITVLEQQDMWWFGEVQGQKGWFPKSYVKLISG [H23I] | -0.551 ± 0.35 |
| QGEKVEGLQAQALYPWRAKKDNYLNFNKNDVITVLEQQDMWWFGEVQGQKGWFPKSYVKLISG [H23Y] | -0.171 ± 0.13 |
| QGEKVEGLQAQALYPWRAKKDNRLNFNKNDVITVLEQQDMWWFGEVQGQKGWFPKSYVKLISG [H23R] | -0.254 ± 0.11 |
| QGEKVEGLQAQALYPWRAKKDNALNFNKNDVITVLEQQDMWWFGEVQGQKGWFPKSYVKLISG [H23A] | -0.245 ± 0.091 |
| QGEKVEGLQAQALYPWRAKKDNTLNFNKNDVITVLEQQDMWWFGEVQGQKGWFPKSYVKLISG [H23T] | -0.207 ± 0.14 |
| QGEKVEGLQAQALYPWRAKKDNGLNFNKNDVITVLEQQDMWWFGEVQGQKGWFPKSYVKLISG [H23G] | -0.164 ± 0.11 |
| QGEKVEGLQAQALYPWRAKKDNFLNFNKNDVITVLEQQDMWWFGEVQGQKGWFPKSYVKLISG [H23F] | -0.123 ± 0.26 |
| QGEKVEGLQAQALYPWRAKKDNLLNFNKNDVITVLEQQDMWWFGEVQGQKGWFPKSYVKLISG [H23L] | -0.114 ± 0.085 |
| QGEKVEGLQAQALYPWRAKKDNMLNFNKNDVITVLEQQDMWWFGEVQGQKGWFPKSYVKLISG [H23M] | -0.231 ± 0.16 |
| QGEKVEGLQAQALYPWRAKKDNSLNFNKNDVITVLEQQDMWWFGEVQGQKGWFPKSYVKLISG [H23S] | -0.316 ± 0.14 |
| QGEKVEGLQAQALYPWRAKKDNWLNFNKNDVITVLEQQDMWWFGEVQGQKGWFPKSYVKLISG [H23W] | -0.04 ± 0.2 |
| QGEKVEGLQAQALYPWRAKKDNCLNFNKNDVITVLEQQDMWWFGEVQGQKGWFPKSYVKLISG [H23C] | -0.492 ± 0.22 |
| QGEKVEGLQAQALYPWRAKKDNPLNFNKNDVITVLEQQDMWWFGEVQGQKGWFPKSYVKLISG [H23P] | -0.596 ± 0.18 |
| QGEKVEGLQAQALYPWRAKKDNVLNFNKNDVITVLEQQDMWWFGEVQGQKGWFPKSYVKLISG [H23V] | -0.172 ± 0.1 |
